Assay results reported in patent US20240262923A1 (Sanofi, published 2024).

B1: MC1 (conditionally-active, masked Optimized Construct #3; MM1 and cleavable linker #1) (bispecific antibody)
heavy: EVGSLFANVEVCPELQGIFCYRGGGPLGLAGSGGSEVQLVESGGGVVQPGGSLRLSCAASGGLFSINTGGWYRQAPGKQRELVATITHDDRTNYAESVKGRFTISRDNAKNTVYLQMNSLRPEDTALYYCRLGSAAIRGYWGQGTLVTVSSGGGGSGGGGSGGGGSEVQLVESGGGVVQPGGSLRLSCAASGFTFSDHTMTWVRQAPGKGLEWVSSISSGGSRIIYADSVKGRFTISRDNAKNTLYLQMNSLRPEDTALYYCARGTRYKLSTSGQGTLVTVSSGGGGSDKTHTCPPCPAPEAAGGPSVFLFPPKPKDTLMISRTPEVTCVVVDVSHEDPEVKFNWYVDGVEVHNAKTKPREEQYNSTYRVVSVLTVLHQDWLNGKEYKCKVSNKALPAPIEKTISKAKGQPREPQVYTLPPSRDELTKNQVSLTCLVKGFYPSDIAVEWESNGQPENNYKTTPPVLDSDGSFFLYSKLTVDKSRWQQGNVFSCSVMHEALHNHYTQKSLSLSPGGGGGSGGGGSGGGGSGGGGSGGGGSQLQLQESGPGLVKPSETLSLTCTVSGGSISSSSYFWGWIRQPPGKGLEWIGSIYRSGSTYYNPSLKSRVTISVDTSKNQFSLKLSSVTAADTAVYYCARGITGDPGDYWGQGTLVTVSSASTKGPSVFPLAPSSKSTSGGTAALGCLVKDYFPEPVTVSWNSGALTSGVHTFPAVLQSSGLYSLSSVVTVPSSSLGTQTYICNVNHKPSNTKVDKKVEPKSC
light: EIVLTQSPATLSLSPGERATLSCGASQSVPINFLAWYQQKPGLAPRLLIYEASSRHTGIPDRFSGSGSGTDFTLTISRLEPEDFAVYYCGQYGSSPYTFGQGTKLEIKRTVAAPSVFIFPPSDEQLKSGTASVVCLLNNFYPREAKVQWKVDNALQSGNSQESVTEQDSKDSTYSLSSTLTLSKADYEKHKVYACEVTHQGLSSPVTKSFNRGEC
B2: MC2 (conditionally-active, masked Optimized Construct #3; MM2 and cleavable linker #1) (bispecific antibody)
heavy: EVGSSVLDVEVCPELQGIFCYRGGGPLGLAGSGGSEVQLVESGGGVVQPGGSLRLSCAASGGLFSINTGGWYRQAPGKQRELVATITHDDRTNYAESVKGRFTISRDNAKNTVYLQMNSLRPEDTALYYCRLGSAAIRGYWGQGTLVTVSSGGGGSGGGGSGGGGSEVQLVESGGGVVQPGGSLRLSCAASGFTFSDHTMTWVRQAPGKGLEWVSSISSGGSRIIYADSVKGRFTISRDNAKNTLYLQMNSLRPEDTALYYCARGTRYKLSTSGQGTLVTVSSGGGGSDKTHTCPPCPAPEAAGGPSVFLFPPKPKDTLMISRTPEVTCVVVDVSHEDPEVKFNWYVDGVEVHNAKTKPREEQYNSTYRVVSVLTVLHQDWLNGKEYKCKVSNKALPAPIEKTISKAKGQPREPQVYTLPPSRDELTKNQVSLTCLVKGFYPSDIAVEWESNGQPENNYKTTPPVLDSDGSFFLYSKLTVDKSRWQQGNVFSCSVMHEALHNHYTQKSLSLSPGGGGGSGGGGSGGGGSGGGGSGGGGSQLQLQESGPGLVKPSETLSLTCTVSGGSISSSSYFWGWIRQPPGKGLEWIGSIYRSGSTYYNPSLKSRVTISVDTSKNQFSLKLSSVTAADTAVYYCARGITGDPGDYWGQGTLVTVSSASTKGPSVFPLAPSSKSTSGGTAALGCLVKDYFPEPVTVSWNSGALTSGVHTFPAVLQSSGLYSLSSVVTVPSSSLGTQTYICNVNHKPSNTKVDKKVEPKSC
light: EIVLTQSPATLSLSPGERATLSCGASQSVPINFLAWYQQKPGLAPRLLIYEASSRHTGIPDRFSGSGSGTDFTLTISRLEPEDFAVYYCGQYGSSPYTFGQGTKLEIKRTVAAPSVFIFPPSDEQLKSGTASVVCLLNNFYPREAKVQWKVDNALQSGNSQESVTEQDSKDSTYSLSSTLTLSKADYEKHKVYACEVTHQGLSSPVTKSFNRGEC
B3: MC3 (conditionally-active, masked Optimized Construct #3; MM1 and cleavable linker #2) (bispecific antibody)
heavy: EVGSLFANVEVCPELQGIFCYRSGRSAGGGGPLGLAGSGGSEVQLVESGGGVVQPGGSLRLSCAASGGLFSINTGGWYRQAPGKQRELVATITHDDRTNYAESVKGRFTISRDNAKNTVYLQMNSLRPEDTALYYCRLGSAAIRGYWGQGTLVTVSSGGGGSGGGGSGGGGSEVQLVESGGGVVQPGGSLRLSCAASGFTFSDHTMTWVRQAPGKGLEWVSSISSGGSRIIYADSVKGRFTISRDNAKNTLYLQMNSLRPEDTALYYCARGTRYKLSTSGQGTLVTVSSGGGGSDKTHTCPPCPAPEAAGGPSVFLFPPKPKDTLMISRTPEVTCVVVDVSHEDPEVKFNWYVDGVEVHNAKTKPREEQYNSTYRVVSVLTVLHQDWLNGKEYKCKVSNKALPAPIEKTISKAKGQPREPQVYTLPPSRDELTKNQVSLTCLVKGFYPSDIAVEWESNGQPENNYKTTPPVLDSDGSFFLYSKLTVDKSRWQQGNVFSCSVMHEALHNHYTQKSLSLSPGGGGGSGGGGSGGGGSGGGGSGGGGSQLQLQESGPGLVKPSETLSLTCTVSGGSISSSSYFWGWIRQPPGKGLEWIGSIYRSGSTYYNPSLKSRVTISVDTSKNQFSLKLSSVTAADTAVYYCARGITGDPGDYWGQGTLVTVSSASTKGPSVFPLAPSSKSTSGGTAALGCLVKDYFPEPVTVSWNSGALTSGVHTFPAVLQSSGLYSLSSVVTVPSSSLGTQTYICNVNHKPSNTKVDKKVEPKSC
light: EIVLTQSPATLSLSPGERATLSCGASQSVPINFLAWYQQKPGLAPRLLIYEASSRHTGIPDRFSGSGSGTDFTLTISRLEPEDFAVYYCGQYGSSPYTFGQGTKLEIKRTVAAPSVFIFPPSDEQLKSGTASVVCLLNNFYPREAKVQWKVDNALQSGNSQESVTEQDSKDSTYSLSSTLTLSKADYEKHKVYACEVTHQGLSSPVTKSFNRGEC
B4: MC4 (conditionally-active, masked Optimized Construct #3; MM2 and cleavable linker #2) (bispecific antibody)
heavy: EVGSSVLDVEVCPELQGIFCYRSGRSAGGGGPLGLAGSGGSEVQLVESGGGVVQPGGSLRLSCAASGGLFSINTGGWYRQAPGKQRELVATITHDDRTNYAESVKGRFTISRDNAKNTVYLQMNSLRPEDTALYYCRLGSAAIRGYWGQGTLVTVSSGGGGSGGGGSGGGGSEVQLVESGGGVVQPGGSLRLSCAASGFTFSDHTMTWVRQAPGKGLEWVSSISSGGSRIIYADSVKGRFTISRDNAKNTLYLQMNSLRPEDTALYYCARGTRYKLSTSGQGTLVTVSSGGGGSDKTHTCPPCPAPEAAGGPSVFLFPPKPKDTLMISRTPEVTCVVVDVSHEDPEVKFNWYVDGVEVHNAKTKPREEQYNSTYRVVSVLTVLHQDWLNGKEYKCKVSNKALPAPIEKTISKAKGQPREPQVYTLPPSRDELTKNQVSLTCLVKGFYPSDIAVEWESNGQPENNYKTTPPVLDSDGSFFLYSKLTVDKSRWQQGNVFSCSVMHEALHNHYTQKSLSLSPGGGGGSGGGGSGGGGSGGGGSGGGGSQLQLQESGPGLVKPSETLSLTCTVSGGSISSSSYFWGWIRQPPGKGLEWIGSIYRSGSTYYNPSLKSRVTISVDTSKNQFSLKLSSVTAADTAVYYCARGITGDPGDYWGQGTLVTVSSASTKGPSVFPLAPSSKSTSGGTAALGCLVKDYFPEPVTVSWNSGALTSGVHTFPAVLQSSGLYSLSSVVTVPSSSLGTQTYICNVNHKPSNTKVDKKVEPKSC
light: EIVLTQSPATLSLSPGERATLSCGASQSVPINFLAWYQQKPGLAPRLLIYEASSRHTGIPDRFSGSGSGTDFTLTISRLEPEDFAVYYCGQYGSSPYTFGQGTKLEIKRTVAAPSVFIFPPSDEQLKSGTASVVCLLNNFYPREAKVQWKVDNALQSGNSQESVTEQDSKDSTYSLSSTLTLSKADYEKHKVYACEVTHQGLSSPVTKSFNRGEC
B5: anti-4-1BB clone #5a VHH, bivalent monoparatopic Fab-like construct (other)
chain 1: QVQLQESGGGWVQPGGSLRLSCAASGFAFRDFTMSWARQAPGERFEWISSINPSGGSQSYLPSVKGRFTISRDNAKNTMFLQMDNLTPEDTAVYFCARGTRYKMSTSGPGTQVTVSS
chain 2: QVQLQESGGGWVQPGGSLRLSCAASGFAFRDFTMSWARQAPGERFEWISSINPSGGSQSYLPSVKGRFTISRDNAKNTMFLQMDNLTPEDTAVYFCARGTRYKMSTSGPGTQVTVSS
notes: not shown: human CL (lambda) constant domain, tag if any; human IgG1 CH1 domain, HA and 6-His tags
B6: anti-4-1BB clone #5d VHH, bivalent monoparatopic Fab-like construct (other)
chain 1: QVQLQESGGGLVQPGGSLRLSCVASGFTFANYRMSWVRQAPGKGLEWVSSIKKSGNRTTYSDSVKGRFTISRDNAKNTMFLQMDNLTPEDTAVYFCARGTRYKMSTSGPGTQVTVSS
chain 2: QVQLQESGGGLVQPGGSLRLSCVASGFTFANYRMSWVRQAPGKGLEWVSSIKKSGNRTTYSDSVKGRFTISRDNAKNTMFLQMDNLTPEDTAVYFCARGTRYKMSTSGPGTQVTVSS
notes: as for B5

Columns and labels:
[1] = molecular target: T1, human PD-1 expressed on cells (300.19 pre-B cells, PD-1 NFAT-luc2 Jurkat cells, primary T-cells) (human, UniProt Q15116 25-288); assay: cell-based or functional assay
[2] = molecular target: T2, cynomolgus monkey 4-1BB expressed on 300.19 pre-B cells (cynomolgus monkey, UniProt A9YYE7 24-254); assay: flow cytometry on 300.19 pre-B cells
T2 construct: whole, on cells; also called cy4-1BB; Pre-B cy4-1BB

[3] = molecular target: T3, cynomolgus monkey PD-1 expressed on 300.19 pre-B cells (cynomolgus monkey, UniProt B0LAJ3 25-288); assay: flow cytometry on 300.19 pre-B cells
T3 construct: also called cyPD-1; Pre-B cyPD-1

[4] = molecular target: T1, human PD-1 expressed on cells (300.19 …); assay: flow cytometry on 300.19 pre-B cells
[5] = molecular target: T4, cynomolgus monkey PD-1 (SPR analyte) (cynomolgus monkey, UniProt B0LAJ3 25-170); assay: SPR, KD on cyPD-1 against KD on hPD-1
T4 construct: also called cyPD-1

[6] = molecular target: T1, human PD-1 expressed on cells (300.19 …); assay: flow cytometry on PD-1+ Jurkat T-cells
[7] = molecular target: T3, cynomolgus monkey PD-1 expressed on …; assay: flow cytometry on 300.19 pre-B cells, cyPD-1 against hPD-1
[8] = molecular target: T2, cynomolgus monkey 4-1BB expressed on …; assay: flow cytometry on 300.19 pre-B cells, cy4-1BB against h4-1BB
[9] = molecular target: T2, cynomolgus monkey 4-1BB expressed on …; assay: flow cytometry on 300.19 pre-B cells, cy4-1BB, against Optimized Construct #3
[10] = molecular target: T4, cynomolgus monkey PD-1 (SPR analyte); assay: SPR (Biacore 8K), binder captured on anti-Fc chip, target as analyte, 1:1 model
human PD-1 (SPR analyte) = molecular target: T5, human PD-1 (SPR analyte) (human, UniProt Q15116 25-167, limits assumed); assay: as above
T5 construct: Soluble analyte in SPR; also called hPD-1

[11] = molecular target: T6, human His-tagged 4-1BB recombinant protein (human, UniProt Q07011 24-186); assay: ELISA binding on 4-1BB-his, bivalent monoparatopic Fab-like constructs
T6 construct: also called human 4-1BB; h4-1BB; not shown: His tag

T3 sequence (B0LAJ3 entry or part of it limits assumed): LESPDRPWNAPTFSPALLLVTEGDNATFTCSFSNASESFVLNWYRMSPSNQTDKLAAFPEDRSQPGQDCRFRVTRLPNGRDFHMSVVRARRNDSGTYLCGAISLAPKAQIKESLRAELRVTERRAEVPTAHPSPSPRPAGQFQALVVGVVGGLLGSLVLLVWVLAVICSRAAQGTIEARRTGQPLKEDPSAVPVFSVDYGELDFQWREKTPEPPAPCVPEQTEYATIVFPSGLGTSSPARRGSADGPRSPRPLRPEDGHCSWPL
T2 sequence (A9YYE7 entry or part of it): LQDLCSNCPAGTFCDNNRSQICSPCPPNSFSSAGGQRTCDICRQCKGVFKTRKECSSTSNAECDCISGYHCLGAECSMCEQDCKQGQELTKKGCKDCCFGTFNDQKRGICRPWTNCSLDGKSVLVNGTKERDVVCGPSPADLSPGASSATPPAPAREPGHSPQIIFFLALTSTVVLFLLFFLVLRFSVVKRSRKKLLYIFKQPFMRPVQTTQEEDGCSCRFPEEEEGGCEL
T4 sequence (B0LAJ3 entry or part of it limits assumed): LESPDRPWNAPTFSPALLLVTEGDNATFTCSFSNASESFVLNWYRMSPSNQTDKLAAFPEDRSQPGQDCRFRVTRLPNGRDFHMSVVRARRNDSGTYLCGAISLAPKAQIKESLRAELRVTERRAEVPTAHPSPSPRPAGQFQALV
T1 sequence (Q15116 25-288 limits assumed): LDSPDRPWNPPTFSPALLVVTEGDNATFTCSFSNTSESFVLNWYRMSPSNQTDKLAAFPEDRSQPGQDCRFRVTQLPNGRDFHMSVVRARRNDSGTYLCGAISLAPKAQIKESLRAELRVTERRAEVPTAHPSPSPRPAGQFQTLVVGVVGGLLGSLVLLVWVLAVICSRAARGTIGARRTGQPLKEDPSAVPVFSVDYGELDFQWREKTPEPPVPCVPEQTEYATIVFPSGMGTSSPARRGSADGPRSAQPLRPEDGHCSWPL
T5 sequence (Q15116 25-167 limits assumed): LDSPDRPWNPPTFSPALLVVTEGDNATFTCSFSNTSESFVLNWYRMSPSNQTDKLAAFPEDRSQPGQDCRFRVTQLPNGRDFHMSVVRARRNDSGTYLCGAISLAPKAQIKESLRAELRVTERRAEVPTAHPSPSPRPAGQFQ

Row | Binder | EC50 value (nM), PD-1 reporter assay [1] [nM] | EC50 [2] [nM] | EC50 [3] [nM] | EC50 [4] [nM] | Ratio KD cyno/human [5] [fold] | EC50 [6] [nM] | Ratio EC50 cy/h [7] [fold] | Ratio EC50 cy/h [8] [fold] | masking efficacy (masked EC50/naked EC50) [9] [fold] | Kd [10] [nM] | Kd (human PD-1 (SPR analyte)) [nM] | EC50 (read off the curve) [11] [nM] | binding result [11]
1 | B1 | 2.43 | 6.24 | 1.67 | 1.65 | 2.3 | 0.7 | 0.99 | 0.07 | 7 | 14.9 | 6.42 |  | 
2 | B2 | 2.54 | 16.6 | 1.5 | 2.97 | 2.2 | 0.78 | 0.51 | 2.44 | 18 | 17.3 | 7.73 |  | 
3 | B3 | 2.62 | 5.9 | 1.4 | 1.76 | 2 | 0.89 | 0.8 | 0.23 | 6 | 13.4 | 6.73 |  | 
4 | B4 | 2.81 | 9.81 | 4.8 | 2.68 | 2.7 | 0.72 | 1.79 | 1.01 | 11 | 18.3 | 6.82 |  | 
5 | B5 |  |  |  |  |  |  |  |  |  |  |  | ~0.5 | 
6 | B6 |  |  |  |  |  |  |  |  |  |  |  |  | binds
